Measured values taken from PMC6430559, “Antigenicity and Immunogenicity of Differentially Glycosylated Hepatitis C Virus E2 Envelope Proteins Expressed in Mammalian and Insect Cells” (Journal of Virology, 2019).

B1: Human monoclonal antibody (HMAb) HC33.1, specific for antigenic domain E of HCV E2 (antibody, V domains shown)
VH: EVQLVESGGGLVQPGGSLRLSCVASGLTFTNFAVSWVRQAPGKGLEWVSAISSSDGSTYYSDSVKGRFTISRDSSMNTLYLQMDSLRVEDTAVYFCARAVVSSDITYTYWSKYFDYWGQGTLVTVSS
VL: QSVVTQPPSVSAAPGQKVTISCSGGSFNIGNNYVSWYQQLPGTAPKLLIYDNDNRPSGIPDRFSGSKSGTSATLDITGLQTGDEADYYCGTWDSSLNVVVFGGGTKLTVL
B2: Human CD81 large extracellular loop (CD81-LEL; CD81 residues 113 to 201) (domain or fragment, UniProt P60033 113-201, looked up)
chain: FVNKDQIAKDVKQFYDQALQQAVVDDDANNAKAVVKTFHETLDCCGSSTLTALTTSVLKNNLCPSGSNIISNLFKEDCHQKIDDLFSGK
notes: human CD81 large extracellular loop, residues 113 to 201; Cloned into the vector pHLsec (Addgene plasmid #99845 is the vector); The C-terminal His6 tag was stripped with carboxypeptidase A-agarose before biolayer interferometry; also called recombinant CD81; source: FreeStyle HEK293-F cells, transfected, secreted; purified from culture supernatant (HiTrap chelating HP Ni2+-NTA, Superdex 75); not …

What was measured:
Experiment in all cases: BLI; Octet RED96; His6-tagged sE2 (5 ug/ml, 600 s) loaded on Ni2+-NTA biosensors and stabilised with EDC/NHS, quenched with 1 M ethanolamine pH 8.0; association 300 s, dissociation 300 s; 2-fold dilution series of CD81 or HMAb (IgG format); steady-state analysis by the legend, global fit by the methods; values may reflect bivalent IgG binding
[1] = biological target: HEK293-derived soluble HCV E2 glycoprotein (sE2), genotype 1a H77c, residues 384 to 661, monomeric (hepatitis C virus genotype 1a, strain H77c) (UniProt P27958)
HEK293-derived soluble HCV E2 glycoprotein (sE2), genotype 1a H77c, residues 384 to 661, monomeric (hepatitis C virus genotype 1a, strain H77c), sequence (P27958 384-661): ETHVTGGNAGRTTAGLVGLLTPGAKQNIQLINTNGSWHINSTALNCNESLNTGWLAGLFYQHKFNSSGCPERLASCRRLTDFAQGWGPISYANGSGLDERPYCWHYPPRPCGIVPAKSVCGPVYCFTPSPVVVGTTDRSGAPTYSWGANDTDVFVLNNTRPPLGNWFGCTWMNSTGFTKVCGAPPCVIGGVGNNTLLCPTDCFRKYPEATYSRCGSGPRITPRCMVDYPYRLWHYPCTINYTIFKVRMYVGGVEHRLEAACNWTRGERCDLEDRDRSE

[2] = biological target: Sf9-derived soluble HCV E2 glycoprotein (sE2), genotype 1a H77c, residues 384 to 661, monomeric (hepatitis C virus genotype 1a, strain H77c) (UniProt P27958)
Sf9-derived soluble HCV E2 glycoprotein (sE2), genotype 1a H77c, residues 384 to 661, monomeric (hepatitis C virus genotype 1a, strain H77c), sequence (P27958 384-661): as above

[3] = biological target: T1, Sf9-derived soluble HCV E2 glycoprotein (sE2), genotype 1a H77c, residues 384 to 661, monomeric (hepatitis C virus genotype 1a, strain …, UniProt P27958 384-661, N-glycans at positions 417, 423, 430, 448, 476, 532, 540, 556, 576, 623 and 645; mainly paucimannose-type glycans, with or without one or two core fucose residues); conditions: both partners purified
T1 construct: HCV envelope glycoprotein E2 lacking the C-terminal transmembrane anchor, amino acids 384 to 661 of the strain 1a HCV H77c polyprotein; also called Sf9-derived sE2; Sf9 sE2; source: Sf9 cells infected with recombinant baculovirus, secreted; purified from culture supernatant (HisTrap Ni2+-NTA, Superdex 200; monomer peak); not shown: His6, C-terminal, kept
T1 sequence (P27958 384-661): as above

[4] = biological target: T2, HEK293-derived soluble HCV E2 glycoprotein (sE2), genotype 1a H77c, residues 384 to 661, monomeric (hepatitis C virus genotype 1a, strain …, UniProt P27958 384-661, N-glycans at positions 417, 423, 430, 448, 476, 532, 540, 556, 576, 623 and 645; mostly complex- and high-mannose-type glycans); conditions: both partners purified
T2 construct: HCV envelope glycoprotein E2 lacking the C-terminal transmembrane anchor, amino acids 384 to 661 of the strain 1a HCV H77c polyprotein; also called HEK293-derived sE2; HEK293 sE2; source: FreeStyle 293-F (HEK293-F) cells, transfected, secreted; purified from culture supernatant (HisTrap Ni2+-NTA, Superdex 200; monomer peak); not shown: His6, C-terminal, kept
T2 sequence (P27958 384-661): as above

Row | Binder | Kd [1] [nM] | Kd [2] [nM] | Kd [3] [nM] | Kd [4] [nM]
1 | B1 | 50 | 47 |  | 
2 | B2 |  |  | 440 ± 38 | 510 ± 22
